Reference: publication PMC9482650, “Quantitative fragmentomics allow affinity mapping of interactomes” (Nature Communications, 2022)

T1: CNKSR1, Q969H4
T1 sequence (Q969H4 191-295, limits assumed, looked up): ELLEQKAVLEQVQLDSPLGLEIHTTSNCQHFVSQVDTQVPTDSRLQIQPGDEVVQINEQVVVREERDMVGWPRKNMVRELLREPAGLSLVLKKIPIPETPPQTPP

T2: DFNB31_1, Q9P202
T2 sequence (Q9P202 135-233, limits assumed, looked up): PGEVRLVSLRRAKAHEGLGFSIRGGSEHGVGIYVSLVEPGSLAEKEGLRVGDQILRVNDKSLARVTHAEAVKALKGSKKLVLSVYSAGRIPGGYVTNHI

T3: INTU, Q9ULD6
T3 sequence (Q9ULD6 180-273, limits assumed, looked up): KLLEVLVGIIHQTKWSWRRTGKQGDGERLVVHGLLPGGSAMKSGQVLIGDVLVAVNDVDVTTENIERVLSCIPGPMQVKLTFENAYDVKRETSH

T4: LIN7B, Q9HAP6
T4 sequence (Q9HAP6 88-185, limits assumed, looked up): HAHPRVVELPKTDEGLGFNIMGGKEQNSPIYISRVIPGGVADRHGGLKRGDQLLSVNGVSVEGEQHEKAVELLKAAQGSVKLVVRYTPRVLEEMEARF

T5: MPDZ_2, O75970
T5 sequence (O75970 252-347, limits assumed, looked up): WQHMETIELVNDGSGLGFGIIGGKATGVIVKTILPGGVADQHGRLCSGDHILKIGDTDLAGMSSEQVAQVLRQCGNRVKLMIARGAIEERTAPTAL

T6: MPDZ_6, O75970
T6 sequence (O75970 1003-1099, limits assumed, looked up): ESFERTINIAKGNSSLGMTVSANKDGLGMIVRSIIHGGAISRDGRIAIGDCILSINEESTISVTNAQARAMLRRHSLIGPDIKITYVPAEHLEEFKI

T7: MPP1, Q00013
T7 sequence (Q00013 66-162, limits assumed, looked up): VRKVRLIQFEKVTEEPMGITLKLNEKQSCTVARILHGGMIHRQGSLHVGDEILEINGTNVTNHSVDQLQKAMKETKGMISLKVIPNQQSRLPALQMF

T8: NHERF1_2, O14745
T8 sequence (O14745 149-244, limits assumed, looked up): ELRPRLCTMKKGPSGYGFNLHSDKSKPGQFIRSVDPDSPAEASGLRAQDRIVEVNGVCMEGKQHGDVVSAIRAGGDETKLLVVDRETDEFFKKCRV

T9: PARD6B, Q9BYG5
T9 sequence (Q9BYG5 152-260, limits assumed, looked up): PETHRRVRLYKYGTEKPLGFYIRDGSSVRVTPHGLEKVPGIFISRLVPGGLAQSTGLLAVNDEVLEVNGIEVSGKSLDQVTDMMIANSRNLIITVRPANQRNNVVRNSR

T10: PARD6G, Q9BYG4
T10 sequence (Q9BYG4 153-261, limits assumed, looked up): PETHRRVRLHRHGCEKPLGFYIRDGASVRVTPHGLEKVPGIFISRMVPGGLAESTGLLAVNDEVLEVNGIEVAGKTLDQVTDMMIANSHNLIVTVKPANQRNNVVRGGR

T11: PDZD11, Q5EBL8
T11 sequence (Q5EBL8 42-139, limits assumed, looked up): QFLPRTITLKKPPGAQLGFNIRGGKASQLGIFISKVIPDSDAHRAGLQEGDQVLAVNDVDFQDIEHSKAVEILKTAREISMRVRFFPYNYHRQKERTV

T12: PDZRN3_2, Q9UPQ7
T12 sequence (Q9UPQ7 414-513, limits assumed, looked up): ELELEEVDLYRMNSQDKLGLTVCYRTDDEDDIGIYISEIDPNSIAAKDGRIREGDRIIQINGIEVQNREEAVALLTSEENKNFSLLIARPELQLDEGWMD

T13: PREX2_2, Q70Z35
T13 sequence (Q70Z35 672-764, limits assumed, looked up): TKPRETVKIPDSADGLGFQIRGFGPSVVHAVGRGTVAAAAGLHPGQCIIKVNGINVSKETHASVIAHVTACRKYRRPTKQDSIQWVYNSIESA

T14: SNTB2, Q13425
T14 sequence (Q13425 110-208, limits assumed, looked up): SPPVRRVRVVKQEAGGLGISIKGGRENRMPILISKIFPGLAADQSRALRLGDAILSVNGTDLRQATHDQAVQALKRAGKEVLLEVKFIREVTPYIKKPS

T15: TJP3_2, O95049
T15 sequence (O95049 190-282, limits assumed, looked up): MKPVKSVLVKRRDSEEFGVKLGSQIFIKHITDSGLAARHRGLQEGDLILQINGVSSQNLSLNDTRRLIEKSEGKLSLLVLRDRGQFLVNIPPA

B1: HPV67-E6, A4U7F2 (peptide)
chain: SRPQRTQTQV
B2: CYSLTR2, Q9NS75 (peptide)
chain: SVWLRKETRV
B3: HPV16-E6, P03126 (peptide)
chain: SSRTRRETQL
B4: GRASP, Q7Z6J2 (peptide)
chain: RSLEEEESQL
B5: MUC3B, MUC3A, Q02505;Q9H195 (peptide)
chain: KRPEMTSSSV
B6: NF2, P35240 (peptide)
chain: KSRVAFFEEL
B7: MYO18A, Q92614 (peptide)
chain: TEAKLTETNA

These binders were tested against T1, CNKSR1, Q969H4 (assay: holdup assay). Details: plain residues with an end cap or a label only (N-terminal biotin on a linker: ttds).
Design: key: below the threshold = too weak to quantify, mostly under pKd 3.1 to 4

Row | Binder | pKd
1 | B1 | below the threshold
2 | B2 | below the threshold
3 | B3 | below the threshold
4 | B4 | below the threshold

The binders below were run against T2, DFNB31_1, Q9P202 (assay: holdup assay). Details: plain residues with an end cap or a label only (N-terminal biotin on a linker: ado-ado).
Design: key: below the threshold = too weak to quantify, mostly under pKd 3.1 to 4

Row | Binder | pKd
5 | B5 | 4.24
6 | B6 | 3.64

Same assay, conditions: plain residues with an end cap or a label only (N-terminal biotin on a linker: ahx)

Row | Binder | pKd
7 | B7 | below the threshold

Same assay, conditions: plain residues with an end cap or a label only (N-terminal biotin on a linker: ttds)

Row | Binder | pKd
8 | B1 | below the threshold
9 | B2 | 4.03
10 | B3 | 3.53
11 | B4 | 3.86

The binders below were run against T3, INTU, Q9ULD6 (assay: holdup assay). Details: plain residues with an end cap or a label only (N-terminal biotin on a linker: ttds).
Design: key: below the threshold = too weak to quantify, mostly under pKd 3.1 to 4

Row | Binder | pKd
12 | B1 | below the threshold
13 | B2 | below the threshold
14 | B3 | below the threshold

What follows are binders tested against T4, LIN7B, Q9HAP6 (assay: holdup assay). Details: plain residues with an end cap or a label only (N-terminal biotin on a linker: ahx).
Design: key: below the threshold = too weak to quantify, mostly under pKd 3.1 to 4

Row | Binder | pKd
15 | B7 | below the threshold

Same assay, conditions: plain residues with an end cap or a label only (N-terminal biotin on a linker: ttds)

Row | Binder | pKd
16 | B1 | below the threshold
17 | B2 | 4.35
18 | B3 | 3.91
19 | B4 | 3.7

What follows are binders tested against LMO7, Q8WWI1 (assay: holdup assay). Details: plain residues with an end cap or a label only (N-terminal biotin on a linker: ttds).
Design: key: below the threshold = too weak to quantify, mostly under pKd 3.1 to 4

LMO7, Q8WWI1, sequence (Q8WWI1 1037-1138): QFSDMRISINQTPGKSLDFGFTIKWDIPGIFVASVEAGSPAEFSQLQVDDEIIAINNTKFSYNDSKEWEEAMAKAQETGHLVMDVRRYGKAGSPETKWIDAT

Row | Binder | pKd
20 | B2 | below the threshold
21 | B3 | 4.15
22 | B4 | 4.14

The binders below were run against MAGI3_3, Q5TCQ9 (assay: holdup assay). Details: plain residues with an end cap or a label only (N-terminal biotin on a linker: ttds).
Design: key: below the threshold = too weak to quantify, mostly under pKd 3.1 to 4

MAGI3_3, Q5TCQ9, sequence (Q5TCQ9 572-655): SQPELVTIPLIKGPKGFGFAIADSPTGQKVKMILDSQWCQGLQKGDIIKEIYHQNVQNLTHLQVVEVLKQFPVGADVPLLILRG

Row | Binder | pKd
23 | B1 | below the threshold
24 | B2 | below the threshold
25 | B3 | below the threshold
26 | B4 | below the threshold

The binders below were run against MAGI3_5, Q5TCQ9 (assay: holdup assay). Details: plain residues with an end cap or a label only (N-terminal biotin on a linker: ttds).
Design: key: below the threshold = too weak to quantify, mostly under pKd 3.1 to 4

MAGI3_5, Q5TCQ9, sequence (Q5TCQ9 847-941): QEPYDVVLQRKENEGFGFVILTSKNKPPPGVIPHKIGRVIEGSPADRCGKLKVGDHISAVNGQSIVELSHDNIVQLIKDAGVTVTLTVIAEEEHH

Row | Binder | pKd
27 | B1 | below the threshold
28 | B2 | below the threshold
29 | B3 | 3.96
30 | B4 | below the threshold

Each binder was assayed against T5, MPDZ_2, O75970 (assay: holdup assay). Details: plain residues with an end cap or a label only (N-terminal biotin on a linker: ttds).
Design: key: below the threshold = too weak to quantify, mostly under pKd 3.1 to 4

Row | Binder | pKd
31 | B1 | below the threshold
32 | B2 | below the threshold
33 | B3 | below the threshold
34 | B4 | below the threshold

Each binder was assayed against T6, MPDZ_6, O75970 (assay: holdup assay). Details: plain residues with an end cap or a label only (N-terminal biotin on a linker: ttds).
Design: key: below the threshold = too weak to quantify, mostly under pKd 3.1 to 4

Row | Binder | pKd
35 | B1 | below the threshold
36 | B2 | below the threshold
37 | B3 | below the threshold
38 | B4 | below the threshold

Each binder was assayed against T7, MPP1, Q00013 (assay: holdup assay). Details: plain residues with an end cap or a label only (N-terminal biotin on a linker: ttds).
Design: key: below the threshold = too weak to quantify, mostly under pKd 3.1 to 4

Row | Binder | pKd
39 | B1 | 5.26
40 | B2 | 6.03
41 | B3 | below the threshold
42 | B4 | below the threshold

The binders below were run against T8, NHERF1_2, O14745 (assay: holdup assay). Details: plain residues with an end cap or a label only (N-terminal biotin on a linker: ttds).
Design: key: below the threshold = too weak to quantify, mostly under pKd 3.1 to 4

Row | Binder | pKd
43 | B1 | below the threshold
44 | B2 | below the threshold
45 | B3 | 3.89
46 | B4 | below the threshold

Each binder was assayed against NHERF2_1, Q15599 (assay: holdup assay). Details: plain residues with an end cap or a label only (N-terminal biotin on a linker: ttds).
Design: key: below the threshold = too weak to quantify, mostly under pKd 3.1 to 4

NHERF2_1, Q15599, sequence (Q15599 9-91): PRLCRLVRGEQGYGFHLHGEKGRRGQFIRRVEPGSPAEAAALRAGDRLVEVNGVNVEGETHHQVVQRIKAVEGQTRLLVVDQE

Row | Binder | pKd
47 | B1 | below the threshold
48 | B2 | below the threshold
49 | B3 | below the threshold
50 | B4 | below the threshold

These binders were tested against T9, PARD6B, Q9BYG5 (assay: holdup assay). Details: plain residues with an end cap or a label only (N-terminal biotin on a linker: ttds).
Design: key: below the threshold = too weak to quantify, mostly under pKd 3.1 to 4

Row | Binder | pKd
51 | B1 | below the threshold
52 | B2 | below the threshold
53 | B3 | below the threshold
54 | B4 | below the threshold

These binders were tested against T10, PARD6G, Q9BYG4 (assay: holdup assay). Details: plain residues with an end cap or a label only (N-terminal biotin on a linker: ttds).
Design: key: below the threshold = too weak to quantify, mostly under pKd 3.1 to 4

Row | Binder | pKd
55 | B1 | below the threshold
56 | B2 | below the threshold
57 | B3 | below the threshold
58 | B4 | below the threshold

These binders were tested against PDLIM4, P50479 (assay: holdup assay). Details: plain residues with an end cap or a label only (N-terminal biotin on a linker: ttds).
Design: key: below the threshold = too weak to quantify, mostly under pKd 3.1 to 4

PDLIM4, P50479, sequence (P50479 1-83): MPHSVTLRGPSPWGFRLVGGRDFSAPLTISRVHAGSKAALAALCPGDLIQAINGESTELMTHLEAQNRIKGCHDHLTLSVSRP

Row | Binder | pKd
59 | B1 | below the threshold
60 | B2 | below the threshold
61 | B3 | below the threshold
62 | B4 | below the threshold

Each binder was assayed against T11, PDZD11, Q5EBL8 (assay: holdup assay). Details: plain residues with an end cap or a label only (N-terminal biotin on a linker: ttds).
Design: key: below the threshold = too weak to quantify, mostly under pKd 3.1 to 4

Row | Binder | pKd
63 | B1 | below the threshold
64 | B2 | below the threshold
65 | B3 | below the threshold
66 | B4 | below the threshold

The binders below were run against PDZD9, Q8IXQ8 (assay: holdup assay). Details: plain residues with an end cap or a label only (N-terminal biotin on a linker: ttds).
Design: key: below the threshold = too weak to quantify, mostly under pKd 3.1 to 4

PDZD9, Q8IXQ8, sequence (Q8IXQ8 23-120): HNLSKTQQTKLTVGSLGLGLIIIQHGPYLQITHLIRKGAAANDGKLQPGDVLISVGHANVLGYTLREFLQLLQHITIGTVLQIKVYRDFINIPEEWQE

Row | Binder | pKd
67 | B1 | below the threshold
68 | B2 | below the threshold
69 | B3 | 4.06
70 | B4 | below the threshold

Each binder was assayed against T12, PDZRN3_2, Q9UPQ7 (assay: holdup assay). Details: plain residues with an end cap or a label only (N-terminal biotin on a linker: ttds).
Design: key: below the threshold = too weak to quantify, mostly under pKd 3.1 to 4

Row | Binder | pKd
71 | B1 | below the threshold
72 | B2 | below the threshold
73 | B3 | below the threshold
74 | B4 | below the threshold

These binders were tested against T13, PREX2_2, Q70Z35 (assay: holdup assay). Details: plain residues with an end cap or a label only (N-terminal biotin on a linker: ttds).
Design: key: below the threshold = too weak to quantify, mostly under pKd 3.1 to 4

Row | Binder | pKd
75 | B1 | below the threshold
76 | B2 | below the threshold
77 | B3 | below the threshold
78 | B4 | below the threshold

What follows are binders tested against RIMS1, Q86UR5 (assay: holdup assay). Details: plain residues with an end cap or a label only (N-terminal biotin on a linker: ttds).
Design: key: below the threshold = too weak to quantify, mostly under pKd 3.1 to 4

RIMS1, Q86UR5, sequence (Q86UR5 584-692): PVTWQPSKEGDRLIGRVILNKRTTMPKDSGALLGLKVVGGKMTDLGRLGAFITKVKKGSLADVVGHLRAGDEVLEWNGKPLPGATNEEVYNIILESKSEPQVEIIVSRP

Row | Binder | pKd
79 | B1 | below the threshold
80 | B2 | below the threshold
81 | B3 | below the threshold
82 | B4 | below the threshold

Each binder was assayed against T14, SNTB2, Q13425 (assay: holdup assay). Details: plain residues with an end cap or a label only (N-terminal biotin on a linker: ttds).
Design: key: below the threshold = too weak to quantify, mostly under pKd 3.1 to 4

Row | Binder | pKd
83 | B1 | below the threshold
84 | B2 | 5.14
85 | B3 | 4.12
86 | B4 | below the threshold

Each binder was assayed against T15, TJP3_2, O95049 (assay: holdup assay). Details: plain residues with an end cap or a label only (N-terminal biotin on a linker: ttds).
Design: key: below the threshold = too weak to quantify, mostly under pKd 3.1 to 4

Row | Binder | pKd
87 | B1 | below the threshold
88 | B2 | below the threshold
89 | B3 | below the threshold
90 | B4 | below the threshold
